According to paper PMC8046733 (Immunity, 2021):
Positions count from the first letter of the chain named. In names and notes the source's numbering stands.

B1: RM2-01 heavy-chain variant I51A (antibody, V domains shown)
VH: QVQLVQSGAEVKKPGASVKLSCKASGFTFRIYAISWVRQAPGQGLEWMGEAVPLGGITNYAQNFQGRAAITADTSINTAYMELSSLRSDDTAVYYCARVRTALVGPREGIFDFWGQGVLVTVSS
VL: DIQMTQSPSSLSASVGDRVSITCRASQTISTYLAWYQQKPGKVPKLLIYTASTLETGVPSRFSGSGSGTEFTLTISSLQPEDFATYYCQQHDSHPYSFGQGTKVEIK
B2: RM2-01 heavy-chain variant I56A (antibody, V domains shown)
VH: B1 VH with A51I, I57A
VL: B1 VL
B3: RM2-01 heavy-chain variant P52aA (antibody, V domains shown)
VH: B1 VH with A51I, P53A
VL: B1 VL
B4: RM11-43 heavy-chain variant I52A (antibody, V domains shown)
VH: QVQLVQSGAEVKKPGASVKLSCKASGFTFRIYAISWVRQAPGQGLEWMGEIAPLGGITNYAQKFQGRVTITADTSTSTAYMELSSLRSEDTAVYYCARGETKMITVLAGTTGGGLDSWGQGTLVTVSS
VL: DIQMTQSPSSLSASVGDKVTITCHASQGISSWLAWYQQKPGKAPKPLIYAASSLQSGVPSRFSGGGSGADYTLTISSLQPEDFATYYCQQYDDLPRTFGQGTKVEIK
B5: RM11-43 heavy-chain variant L53A (antibody, V domains shown)
VH: B4 VH with A52I, L54A
VL: B4 VL
B6: RM11-43 heavy-chain variant I56A (antibody, V domains shown)
VH: B4 VH with A52I, I57A
VL: B4 VL

What follows are binders tested against HCV-1 E1E2 (autologous strain) (Hepatitis C virus genotype 1a, strain …, UniProt P26664, strain) (assay: ELISA).
B1: binds. B2: binds. B3: binds. B4: binds. B5: binds. B6: binds.
